Reference: patent US20210181204A1 (SYNGENTA PARTICIPATIONS, published 2021)
Changes are numbered by the printed parent chain. Names and notes keep the numbering of the source.

How the values were obtained:
[1] = target: T1, Cry1Ab insecticidal protein (Bacillus thuringiensis, UniProt P0A370 1-615); assay: direct ELISA: Cry1Ab coated at 1 ug/ml, RGS-His HRP detection
[2] = target: T2, mCry3A insecticidal protein (Bacillus thuringiensis subsp. …, UniProt P0A379 48-644, limits assumed); assay: direct ELISA: mCry3A coated at 1 ug/ml, RGS-His HRP detection
T2 construct: also called modified Cry3A
T2 sequence: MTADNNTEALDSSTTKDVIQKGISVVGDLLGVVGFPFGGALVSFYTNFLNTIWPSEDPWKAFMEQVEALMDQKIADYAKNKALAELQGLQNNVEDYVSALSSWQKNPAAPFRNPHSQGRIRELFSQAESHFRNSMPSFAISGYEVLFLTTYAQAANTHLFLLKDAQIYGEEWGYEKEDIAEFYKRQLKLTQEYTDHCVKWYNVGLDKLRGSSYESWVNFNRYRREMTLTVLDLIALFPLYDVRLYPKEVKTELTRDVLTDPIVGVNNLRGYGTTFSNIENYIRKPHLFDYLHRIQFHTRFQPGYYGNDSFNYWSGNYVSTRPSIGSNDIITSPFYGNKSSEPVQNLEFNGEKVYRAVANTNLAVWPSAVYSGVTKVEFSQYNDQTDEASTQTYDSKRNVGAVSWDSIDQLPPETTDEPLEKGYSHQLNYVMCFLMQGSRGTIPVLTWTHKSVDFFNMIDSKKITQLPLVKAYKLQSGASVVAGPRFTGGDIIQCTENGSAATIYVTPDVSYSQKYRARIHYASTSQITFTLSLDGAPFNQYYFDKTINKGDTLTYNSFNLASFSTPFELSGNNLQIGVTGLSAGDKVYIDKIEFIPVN

[3] = target: T2, mCry3A insecticidal protein; assay: direct ELISA, coated protein, SA-AP, 405 nm
[4] = target: Cry1Ab.1Ca insecticidal protein; assay: direct ELISA, coated protein, SA-AP, 405 nm
[5] = target: Cry1Aa insecticidal protein (Bacillus thuringiensis subsp. aizawai, UniProt P0A367 12-1176); assay: direct ELISA, coated protein, SA-AP, 405 nm
[6] = target: T1, Cry1Ab insecticidal protein; assay: direct ELISA, coated protein, SA-AP, 405 nm
[7] = target: eCry3.1Ab hybrid insecticidal protein; assay: direct ELISA, coated protein, SA-AP, 405 nm
[8] = target: Cry1Ai insecticidal protein; assay: direct ELISA, coated protein, SA-AP, 405 nm
[9] = target: eCry3.1Ab hybrid insecticidal protein; assay: direct ELISA: eCry3.1Ab coated at 1 ug/ml, RGS-His HRP detection

B1: synNAPS2 variant K7A (designed binder)
chain: RGSHHHHHHGSMVKVKFAYKGEEKEVDTSKIVWIGRFGKSVYFRYDDNGKTGAGRVYEKDAPKELLDMLARAEREKK
[1]
  Binding (OD 450 nm): 4 OD 450 nm

B2: synNAPS2 variant Y46A (designed binder)
chain: B1 chain with A18K, Y57A
[1]
  Binding (OD 450 nm): 3.5 OD 450 nm

B3: synNAPS2 variant V21A (designed binder)
chain: B1 chain with A18K, V32A
[1]
  Binding (OD 450 nm): 3.8 OD 450 nm

B4: synNAPS2 variant R33A (designed binder)
chain: B1 chain with A18K, R44A
[1]
  Binding (OD 450 nm): 2.2 OD 450 nm

B5: synNAPS2 variant F26A (designed binder)
chain: B1 chain with A18K, F37A
[1]
  Binding (OD 450 nm): 3.7 OD 450 nm

B6: synNAPS2 variant K9A (designed binder)
chain: B1 chain with A18K, K20A
[1]
  Binding (OD 450 nm): 4 OD 450 nm

B7: synNAPS2 variant Y8A (designed binder)
chain: B1 chain with A18K, Y19A
[1]
  Binding (OD 450 nm): 2.4 OD 450 nm

B8: synNAPS2 variant G24A (designed binder)
chain: B1 chain with A18K, G35A
[1]
  Binding (OD 450 nm): 4 OD 450 nm

B9: synNAPS2 variant I23A (designed binder)
chain: B1 chain with A18K, I34A
[1]
  Binding (OD 450 nm): 3.2 OD 450 nm

B10: synNAPS2 variant T40A (designed binder)
chain: B1 chain with A18K, T51A
[1]
  Binding (OD 450 nm): 4 OD 450 nm

B11: synNAPS9 variant F31A (designed binder)
chain: RGSHHHHHHGSMVKVKFAQGGEEKEVDTSKIYRVPRHGKIVAFMYDDNGKGGFGHVTEKDAPKELLDMLARAEREKK
[2]
  Binding (OD 450 nm): 1.4 OD 450 nm

B12: synNAPS9 variant H26A (designed binder)
chain: B11 chain with H37A, A42F
[2]
  Binding (OD 450 nm): 1.8 OD 450 nm

B13: synNAPS9 variant F42A (designed binder)
chain: B11 chain with A42F, F53A
[2]
  Binding (OD 450 nm): 0.2 OD 450 nm

B14: synNAPS9 variant R22A (designed binder)
chain: B11 chain with R33A, A42F
[2]
  Binding (OD 450 nm): 1 OD 450 nm

B15: synNAPS9 variant G40A (designed binder)
chain: B11 chain with A42F, G51A
[2]
  Binding (OD 450 nm): 1.7 OD 450 nm

B16: synNAPS9 variant Y21A (designed binder)
chain: B11 chain with Y32A, A42F
[2]
  Binding (OD 450 nm): 1.8 OD 450 nm

B17: synNAPS9 variant P24A (designed binder)
chain: B11 chain with P35A, A42F
[2]
  Binding (OD 450 nm): 0.5 OD 450 nm

B18: synNAPS9 variant G9A (designed binder)
chain: B11 chain with G20A, A42F
[2]
  Binding (OD 450 nm): 1.5 OD 450 nm

B19: synNAPS-10tag ligand (designed binder)
chain: MRGSHHHHHHGSVKVKFLMKGEEKEVDTSKIKWVNRHGKYVAFYYDDNGKTGGGEVREKDAPKELLDMLARAEREKKLGSGLNDIFEAQKIEWH
modifications: in vivo biotinylation (E. coli BirA strain) on the C-terminal avidin-tag
notes: also called tagged synNAPS 10
[3]
  binding result: no binding (tested: 10 nM)
[4]
  binding result: no binding (tested: 10 nM)
[5]
  binding result: no binding (tested: 10 nM)
[6]
  binding result: no binding (tested: 10 nM)
[7]
  binding result: no binding (tested: 10 nM)
[8]
  binding result: no binding (tested: 10 nM)

B20: synNAPS13 variant K7A (designed binder)
chain: RGSHHHHHHGSMVKVKFARWGEEKEVDTSKILHVLRVGKYVRFSYDDNGKLGAGYVTEKDAPKELLDMLARAEREKK
[9]
  Binding (OD 450 nm): 3 OD 450 nm

B21: synNAPS13 variant V26A (designed binder)
chain: B20 chain with A18K, V37A
[9]
  Binding (OD 450 nm): 1.8 OD 450 nm

B22: synNAPS13 variant Y29A (designed binder)
chain: B20 chain with A18K, Y40A
[9]
  Binding (OD 450 nm): 2.6 OD 450 nm

B23: synNAPS13 variant R8A (designed binder)
chain: B20 chain with A18K, R19A
[9]
  Binding (OD 450 nm): 2.4 OD 450 nm

B24: synNAPS13 variant L40A (designed binder)
chain: B20 chain with A18K, L51A
[9]
  Binding (OD 450 nm): 0.5 OD 450 nm

B25: synNAPS13 variant L24A (designed binder)
chain: B20 chain with A18K, L35A
[9]
  Binding (OD 450 nm): 1.1 OD 450 nm

B26: synNAPS13 variant S33A (designed binder)
chain: B20 chain with A18K, S44A
[9]
  Binding (OD 450 nm): 4.1 OD 450 nm

B27: synNAPS13 variant L21A (designed binder)
chain: B20 chain with A18K, L32A
[9]
  Binding (OD 450 nm): 1.8 OD 450 nm

B28: synNAPS13 variant T46A (designed binder)
chain: B20 chain with A18K, T57A
[9]
  Binding (OD 450 nm): 4.1 OD 450 nm

B29: synNAPS13 variant W9A (designed binder)
chain: B20 chain with A18K, W20A
[9]
  Binding (OD 450 nm): 1 OD 450 nm

B30: synNAPS-1tag ligand (designed binder)
chain: MRGSHHHHHHGSVKVKFGPWGEEKEVDTSKIVDVWRWGKYVDFFYDDNGKVGIGSVTEKDAPKELLDMLARAEREKKLGSGLNDIFEAQKIEWH
modifications: in vivo biotinylation (E. coli BirA strain) on the C-terminal avidin-tag
notes: also called tagged synNAPS 1
[3]
  binding result: no binding (tested: 10 nM)
[4]
  binding result: no binding (tested: 10 nM)
[5]
  binding result: no binding (tested: 10 nM)
[6]
  binding result: no binding (tested: 10 nM)
[7]
  binding result: no binding (tested: 10 nM)
[8]
  binding result: no binding (tested: 10 nM)

B31: synNAPS-2 ligand (designed binder)
chain: MVKVKFKYKGEEKEVDTSKIVWIGRFGKSVYFRYDDNGKTGAGRVYEKDAPKELLDMLARAEREKK
[1]
  Binding (OD 450 nm): 4 OD 450 nm

B32: synNAPS-9 ligand (designed binder)
chain: MVKVKFAQGGEEKEVDTSKIYRVPRHGKIVFFMYDDNGKGGFGHVTEKDAPKELLDMLARAEREKK
[2]
  Binding (OD 450 nm): 2.5 OD 450 nm

B33: synNAPS-12tag ligand (designed binder)
chain: MRGSHHHHHHGSVKVKFKLTGEEKEVDTSKIQWVARFGKFVDFLYDDNGKTGWGWVYEKDAPKELLDMLARAEREKKLGSGLNDIFEAQKIEWH
modifications: in vivo biotinylation (E. coli BirA strain) on the C-terminal avidin-tag
notes: also called tagged synNAPS 12
[3]
  binding result: no binding (tested: 10 nM)
[4]
  binding result: no binding (tested: 10 nM)
[5]
  binding result: no binding (tested: 10 nM)
[6]
  binding result: no binding (tested: 10 nM)
[7]
  binding result: no binding (tested: 10 nM)
[8]
  binding result: no binding (tested: 10 nM)

B34: synNAPS-14tag ligand (designed binder)
chain: B33 chain with L19Y, T20K, Q32I, W33F, A35Y, D42M, L44I, W53H, W55D, Y57R
modifications: in vivo biotinylation (E. coli BirA strain) on the C-terminal avidin-tag
notes: also called tagged synNAPS 14
[3]
  binding result: no binding (tested: 10 nM)
[4]
  binding result: no binding (tested: 10 nM)
[5]
  binding result: no binding (tested: 10 nM)
[6]
  binding result: no binding (tested: 10 nM)
[7]
  binding result: no binding (tested: 10 nM)
[8]
  binding result: no binding (tested: 10 nM)
